According to publication PMC7379572:

Key:
Assay in all cases: EMSA
Settings in all cases: EMSA: 0.25 pmol 3'-biotin DNA, 25°C 2 h, LightShift Chemiluminescent EMSA kit buffer (composition and pH not stated), 6% DNA retardation gel, 0.5x TBE
[1] = test system: T1, Pf4r (Pseudomonas aeruginosa PAO1), ORF:4ff4b857
T1 sequence: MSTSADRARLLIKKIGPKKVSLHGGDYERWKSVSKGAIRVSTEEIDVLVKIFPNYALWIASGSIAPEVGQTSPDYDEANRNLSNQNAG

[2] = test system: T2, XisF4 (Pseudomonas aeruginosa PAO1), ORF:74e9b1d3
T2 sequence: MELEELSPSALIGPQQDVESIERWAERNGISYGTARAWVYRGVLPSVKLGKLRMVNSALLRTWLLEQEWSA

[3] = molecular target: T3, XisF5 (Pseudomonas aeruginosa PA14) (UniProt A0A0H2Z817)
T3 sequence: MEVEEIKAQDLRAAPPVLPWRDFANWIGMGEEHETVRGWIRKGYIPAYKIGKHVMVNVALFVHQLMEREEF

## TGCGCTCCGCCCACCGTTCGATGGACTCCACATCCTGTTGCGGCCCTATCAGGGCACTGGGGCTAAGCTCTTCCAGTTCCATGCTCATTCCGTCACTATTCGTGGCATTAGCCATACGCAGCTAGAGAAATAATTACCCTGGAGAAATTATTTCCCCAAAGCCACGTCAGGGCAACTATTTCCCCGGAATAAATTTCTATATGAGCACGTCAGCCGATAGAGCAAGACTATT (double strand) [P1 (xisF4-pf4r intergenic region)]
[1]
  binding: binds
[2]
  binding: binds

## CGCGGTAAAGCCTGAAAACAGAAAGCCCCTGGCACTGGTTGGTGTCAGGGGCTTTTGCATTGGGATCTGGAGCGGGCGAAGGGAATCGAACCCTCGTCATGAGCTTGGGAAGCTCAGGTAATGCCATTATACGACGCCCGCTCGGACGGCTTTTGCGGCCAGGGCGCCTTTTTACCAGATGCGCGGC (double strand) [Pf4 attB]
[2]
  binding: no binding

## CATTTGTCGCCGGAGTACCTGCGGGACGCTATTCGACTCAACCCGCTGGCGGATTTCGACAGTTCTTCGACACTTGTCGAGACGTCCTAGATTTTTCCTTTGCATATCAATAAGTTATGAGCGCTGATTCGGCTTTGCCGA (double strand) [Pf5 attL]
[3]
  binding: binds

## TCGATTGGGAATTCCTCGCCCCGGTGGCGATGGGCTGGGCGCTGCATCACTGGTGGACGGTGATGACGGCGCTAGCGGCGGTAGGGGTGCCGCCATGAGGGGCGGGCCGCGCCGCCGGCCGGGAGCGCAAGGCATGAGCGATAGGCCGAAGGCGCGGCCGACGCCCCTGTAACACGTCAGATAAGCCACCTATTGCGGTTTCAATTCGTACCAATTTGGATCGTTAAAG (double strand) [P4 (PA0727 promoter)]
[2]
  binding: binds

## TTCGCCGGGGTGATCGACACCAGCGCGGTGGAATCGGCGATCACCGATGGCCAGGGCGATATGAAGGCCATTGGCGGCTACATCGTCGGCGCCCTGGTGATCCTGGCCGTTGCCGGCCTGATCTACAGCATGTTGCGCAAGGCGTAACGGGTGCTCTGGTCGGTGTGGTTGGGGGCGTTCTTCGCCGGCGCCTTCATCACCGGGTACCGGACCGGCGAATTCTTCTAACCGAACAGACCGAGGCGGAAGCCCCCTCCGGAGTTTCCGGCAGGGGGCTTTTTTGTGTGGGGTCTTACG (double strand) [P3 (PA0724 promoter)]
[2]
  binding: no binding
